Assay results from patent US20180072816A1.

Target: human CXCR4 (human) (UniProt P61073)
Assay: cell-based or functional assay

Chain of human CXCR4 (human) (P61073 whole entry): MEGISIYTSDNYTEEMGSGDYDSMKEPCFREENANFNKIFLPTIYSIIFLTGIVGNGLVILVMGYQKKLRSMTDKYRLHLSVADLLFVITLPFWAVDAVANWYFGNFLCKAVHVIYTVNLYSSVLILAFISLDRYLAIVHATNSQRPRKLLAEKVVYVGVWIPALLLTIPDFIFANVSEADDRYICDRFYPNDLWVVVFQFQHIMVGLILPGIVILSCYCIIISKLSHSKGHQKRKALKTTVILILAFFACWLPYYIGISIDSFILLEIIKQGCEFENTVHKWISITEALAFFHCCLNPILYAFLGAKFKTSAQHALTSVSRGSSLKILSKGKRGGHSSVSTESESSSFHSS

IC50 (nM) in β-Arrestin BRET assay (Antagonist mode in the presence of 100 nM SDF-1): 64 nM
Substance: anti-CXCR4 MAb 12G5 (antibody)
